# According to patent US20240252670A1, “ANTIBODY DRUG CONJUGATE, PREPARATION METHOD THEREFOR AND APPLICATION THEREOF” (TSINGHUA UNIVERSITY, priority 2021, published 2024):
# Target: PD-L1 on the surface of murine cells (MC38, B16, wild-type DC 2.4) (murine) (UniProt Q9EP73)
# Test: FACS on MC38 cells, FITC-labeled goat anti-human secondary antibody
# Sequence of PD-L1 on the surface of murine cells (MC38, B16, wild-type DC 2.4) (murine) (Q9EP73 19-290): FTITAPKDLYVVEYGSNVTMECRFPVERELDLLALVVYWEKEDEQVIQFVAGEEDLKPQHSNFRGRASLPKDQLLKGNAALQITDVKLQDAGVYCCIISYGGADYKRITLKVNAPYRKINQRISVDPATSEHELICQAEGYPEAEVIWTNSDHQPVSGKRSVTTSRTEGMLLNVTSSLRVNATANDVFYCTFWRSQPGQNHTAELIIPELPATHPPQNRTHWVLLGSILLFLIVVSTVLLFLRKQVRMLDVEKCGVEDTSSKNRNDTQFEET
substance,measurement,value
isotype control IgG (antibody),MFI,167
same,shift rate of the FITC positive signal relative to the NC group,1.7%
